In patent US7067646 (Dana-Farber, dated 2006):
Blank lines part the entries; values can stand above or below the binder they belong to.

Assays:
[1] = target: T1, GST-RB (379-928) (UniProt P06400 379-928); experiment: GST-RB (379-928) pull-down of His-tagged fragment from E. coli, Coomassie stain and anti-His immunoblot
T1 construct: Expressed in E. coli; also called large pocket domain of RB as GST fusion; not shown: glutathione S-transferase (GST) fusion partner of vector pGEX6P-1
T1 sequence (looked up): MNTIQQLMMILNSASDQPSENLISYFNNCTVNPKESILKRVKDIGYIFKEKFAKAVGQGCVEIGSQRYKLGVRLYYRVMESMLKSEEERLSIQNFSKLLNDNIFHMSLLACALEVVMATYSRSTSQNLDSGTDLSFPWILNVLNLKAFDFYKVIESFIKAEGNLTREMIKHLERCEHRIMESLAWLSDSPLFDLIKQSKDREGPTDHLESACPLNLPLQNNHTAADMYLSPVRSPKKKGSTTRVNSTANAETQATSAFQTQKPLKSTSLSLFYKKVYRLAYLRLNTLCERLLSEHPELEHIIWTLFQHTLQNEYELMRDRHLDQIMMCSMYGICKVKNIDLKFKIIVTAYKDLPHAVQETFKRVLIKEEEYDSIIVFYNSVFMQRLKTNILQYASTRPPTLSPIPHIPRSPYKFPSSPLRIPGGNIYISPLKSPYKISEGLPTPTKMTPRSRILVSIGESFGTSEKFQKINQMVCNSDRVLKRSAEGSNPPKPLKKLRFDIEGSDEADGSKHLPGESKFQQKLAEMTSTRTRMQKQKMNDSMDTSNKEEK

[2] = target: T2, MTAF600 (microtubule associated factor 600) (human, UniProt Q5T4S7 1-5183); experiment: anti-FLAG immunoprecipitation of C-terminally tagged RB from HeLa cells
T2 construct: Native endogenous protein of HeLa nuclear extracts (5183 residues); also called MT-associated factor (MTAF) 600; 600 kDa subunit

[3] = target: T2, MTAF600 (microtubule associated factor …); experiment: immunoprecipitation with p130 antibody from HeLa extract, anti-MTAF600 immunoblot

T2 sequence (Q5T4S7 other isoform, or with tags, fused parts or gaps limits assumed): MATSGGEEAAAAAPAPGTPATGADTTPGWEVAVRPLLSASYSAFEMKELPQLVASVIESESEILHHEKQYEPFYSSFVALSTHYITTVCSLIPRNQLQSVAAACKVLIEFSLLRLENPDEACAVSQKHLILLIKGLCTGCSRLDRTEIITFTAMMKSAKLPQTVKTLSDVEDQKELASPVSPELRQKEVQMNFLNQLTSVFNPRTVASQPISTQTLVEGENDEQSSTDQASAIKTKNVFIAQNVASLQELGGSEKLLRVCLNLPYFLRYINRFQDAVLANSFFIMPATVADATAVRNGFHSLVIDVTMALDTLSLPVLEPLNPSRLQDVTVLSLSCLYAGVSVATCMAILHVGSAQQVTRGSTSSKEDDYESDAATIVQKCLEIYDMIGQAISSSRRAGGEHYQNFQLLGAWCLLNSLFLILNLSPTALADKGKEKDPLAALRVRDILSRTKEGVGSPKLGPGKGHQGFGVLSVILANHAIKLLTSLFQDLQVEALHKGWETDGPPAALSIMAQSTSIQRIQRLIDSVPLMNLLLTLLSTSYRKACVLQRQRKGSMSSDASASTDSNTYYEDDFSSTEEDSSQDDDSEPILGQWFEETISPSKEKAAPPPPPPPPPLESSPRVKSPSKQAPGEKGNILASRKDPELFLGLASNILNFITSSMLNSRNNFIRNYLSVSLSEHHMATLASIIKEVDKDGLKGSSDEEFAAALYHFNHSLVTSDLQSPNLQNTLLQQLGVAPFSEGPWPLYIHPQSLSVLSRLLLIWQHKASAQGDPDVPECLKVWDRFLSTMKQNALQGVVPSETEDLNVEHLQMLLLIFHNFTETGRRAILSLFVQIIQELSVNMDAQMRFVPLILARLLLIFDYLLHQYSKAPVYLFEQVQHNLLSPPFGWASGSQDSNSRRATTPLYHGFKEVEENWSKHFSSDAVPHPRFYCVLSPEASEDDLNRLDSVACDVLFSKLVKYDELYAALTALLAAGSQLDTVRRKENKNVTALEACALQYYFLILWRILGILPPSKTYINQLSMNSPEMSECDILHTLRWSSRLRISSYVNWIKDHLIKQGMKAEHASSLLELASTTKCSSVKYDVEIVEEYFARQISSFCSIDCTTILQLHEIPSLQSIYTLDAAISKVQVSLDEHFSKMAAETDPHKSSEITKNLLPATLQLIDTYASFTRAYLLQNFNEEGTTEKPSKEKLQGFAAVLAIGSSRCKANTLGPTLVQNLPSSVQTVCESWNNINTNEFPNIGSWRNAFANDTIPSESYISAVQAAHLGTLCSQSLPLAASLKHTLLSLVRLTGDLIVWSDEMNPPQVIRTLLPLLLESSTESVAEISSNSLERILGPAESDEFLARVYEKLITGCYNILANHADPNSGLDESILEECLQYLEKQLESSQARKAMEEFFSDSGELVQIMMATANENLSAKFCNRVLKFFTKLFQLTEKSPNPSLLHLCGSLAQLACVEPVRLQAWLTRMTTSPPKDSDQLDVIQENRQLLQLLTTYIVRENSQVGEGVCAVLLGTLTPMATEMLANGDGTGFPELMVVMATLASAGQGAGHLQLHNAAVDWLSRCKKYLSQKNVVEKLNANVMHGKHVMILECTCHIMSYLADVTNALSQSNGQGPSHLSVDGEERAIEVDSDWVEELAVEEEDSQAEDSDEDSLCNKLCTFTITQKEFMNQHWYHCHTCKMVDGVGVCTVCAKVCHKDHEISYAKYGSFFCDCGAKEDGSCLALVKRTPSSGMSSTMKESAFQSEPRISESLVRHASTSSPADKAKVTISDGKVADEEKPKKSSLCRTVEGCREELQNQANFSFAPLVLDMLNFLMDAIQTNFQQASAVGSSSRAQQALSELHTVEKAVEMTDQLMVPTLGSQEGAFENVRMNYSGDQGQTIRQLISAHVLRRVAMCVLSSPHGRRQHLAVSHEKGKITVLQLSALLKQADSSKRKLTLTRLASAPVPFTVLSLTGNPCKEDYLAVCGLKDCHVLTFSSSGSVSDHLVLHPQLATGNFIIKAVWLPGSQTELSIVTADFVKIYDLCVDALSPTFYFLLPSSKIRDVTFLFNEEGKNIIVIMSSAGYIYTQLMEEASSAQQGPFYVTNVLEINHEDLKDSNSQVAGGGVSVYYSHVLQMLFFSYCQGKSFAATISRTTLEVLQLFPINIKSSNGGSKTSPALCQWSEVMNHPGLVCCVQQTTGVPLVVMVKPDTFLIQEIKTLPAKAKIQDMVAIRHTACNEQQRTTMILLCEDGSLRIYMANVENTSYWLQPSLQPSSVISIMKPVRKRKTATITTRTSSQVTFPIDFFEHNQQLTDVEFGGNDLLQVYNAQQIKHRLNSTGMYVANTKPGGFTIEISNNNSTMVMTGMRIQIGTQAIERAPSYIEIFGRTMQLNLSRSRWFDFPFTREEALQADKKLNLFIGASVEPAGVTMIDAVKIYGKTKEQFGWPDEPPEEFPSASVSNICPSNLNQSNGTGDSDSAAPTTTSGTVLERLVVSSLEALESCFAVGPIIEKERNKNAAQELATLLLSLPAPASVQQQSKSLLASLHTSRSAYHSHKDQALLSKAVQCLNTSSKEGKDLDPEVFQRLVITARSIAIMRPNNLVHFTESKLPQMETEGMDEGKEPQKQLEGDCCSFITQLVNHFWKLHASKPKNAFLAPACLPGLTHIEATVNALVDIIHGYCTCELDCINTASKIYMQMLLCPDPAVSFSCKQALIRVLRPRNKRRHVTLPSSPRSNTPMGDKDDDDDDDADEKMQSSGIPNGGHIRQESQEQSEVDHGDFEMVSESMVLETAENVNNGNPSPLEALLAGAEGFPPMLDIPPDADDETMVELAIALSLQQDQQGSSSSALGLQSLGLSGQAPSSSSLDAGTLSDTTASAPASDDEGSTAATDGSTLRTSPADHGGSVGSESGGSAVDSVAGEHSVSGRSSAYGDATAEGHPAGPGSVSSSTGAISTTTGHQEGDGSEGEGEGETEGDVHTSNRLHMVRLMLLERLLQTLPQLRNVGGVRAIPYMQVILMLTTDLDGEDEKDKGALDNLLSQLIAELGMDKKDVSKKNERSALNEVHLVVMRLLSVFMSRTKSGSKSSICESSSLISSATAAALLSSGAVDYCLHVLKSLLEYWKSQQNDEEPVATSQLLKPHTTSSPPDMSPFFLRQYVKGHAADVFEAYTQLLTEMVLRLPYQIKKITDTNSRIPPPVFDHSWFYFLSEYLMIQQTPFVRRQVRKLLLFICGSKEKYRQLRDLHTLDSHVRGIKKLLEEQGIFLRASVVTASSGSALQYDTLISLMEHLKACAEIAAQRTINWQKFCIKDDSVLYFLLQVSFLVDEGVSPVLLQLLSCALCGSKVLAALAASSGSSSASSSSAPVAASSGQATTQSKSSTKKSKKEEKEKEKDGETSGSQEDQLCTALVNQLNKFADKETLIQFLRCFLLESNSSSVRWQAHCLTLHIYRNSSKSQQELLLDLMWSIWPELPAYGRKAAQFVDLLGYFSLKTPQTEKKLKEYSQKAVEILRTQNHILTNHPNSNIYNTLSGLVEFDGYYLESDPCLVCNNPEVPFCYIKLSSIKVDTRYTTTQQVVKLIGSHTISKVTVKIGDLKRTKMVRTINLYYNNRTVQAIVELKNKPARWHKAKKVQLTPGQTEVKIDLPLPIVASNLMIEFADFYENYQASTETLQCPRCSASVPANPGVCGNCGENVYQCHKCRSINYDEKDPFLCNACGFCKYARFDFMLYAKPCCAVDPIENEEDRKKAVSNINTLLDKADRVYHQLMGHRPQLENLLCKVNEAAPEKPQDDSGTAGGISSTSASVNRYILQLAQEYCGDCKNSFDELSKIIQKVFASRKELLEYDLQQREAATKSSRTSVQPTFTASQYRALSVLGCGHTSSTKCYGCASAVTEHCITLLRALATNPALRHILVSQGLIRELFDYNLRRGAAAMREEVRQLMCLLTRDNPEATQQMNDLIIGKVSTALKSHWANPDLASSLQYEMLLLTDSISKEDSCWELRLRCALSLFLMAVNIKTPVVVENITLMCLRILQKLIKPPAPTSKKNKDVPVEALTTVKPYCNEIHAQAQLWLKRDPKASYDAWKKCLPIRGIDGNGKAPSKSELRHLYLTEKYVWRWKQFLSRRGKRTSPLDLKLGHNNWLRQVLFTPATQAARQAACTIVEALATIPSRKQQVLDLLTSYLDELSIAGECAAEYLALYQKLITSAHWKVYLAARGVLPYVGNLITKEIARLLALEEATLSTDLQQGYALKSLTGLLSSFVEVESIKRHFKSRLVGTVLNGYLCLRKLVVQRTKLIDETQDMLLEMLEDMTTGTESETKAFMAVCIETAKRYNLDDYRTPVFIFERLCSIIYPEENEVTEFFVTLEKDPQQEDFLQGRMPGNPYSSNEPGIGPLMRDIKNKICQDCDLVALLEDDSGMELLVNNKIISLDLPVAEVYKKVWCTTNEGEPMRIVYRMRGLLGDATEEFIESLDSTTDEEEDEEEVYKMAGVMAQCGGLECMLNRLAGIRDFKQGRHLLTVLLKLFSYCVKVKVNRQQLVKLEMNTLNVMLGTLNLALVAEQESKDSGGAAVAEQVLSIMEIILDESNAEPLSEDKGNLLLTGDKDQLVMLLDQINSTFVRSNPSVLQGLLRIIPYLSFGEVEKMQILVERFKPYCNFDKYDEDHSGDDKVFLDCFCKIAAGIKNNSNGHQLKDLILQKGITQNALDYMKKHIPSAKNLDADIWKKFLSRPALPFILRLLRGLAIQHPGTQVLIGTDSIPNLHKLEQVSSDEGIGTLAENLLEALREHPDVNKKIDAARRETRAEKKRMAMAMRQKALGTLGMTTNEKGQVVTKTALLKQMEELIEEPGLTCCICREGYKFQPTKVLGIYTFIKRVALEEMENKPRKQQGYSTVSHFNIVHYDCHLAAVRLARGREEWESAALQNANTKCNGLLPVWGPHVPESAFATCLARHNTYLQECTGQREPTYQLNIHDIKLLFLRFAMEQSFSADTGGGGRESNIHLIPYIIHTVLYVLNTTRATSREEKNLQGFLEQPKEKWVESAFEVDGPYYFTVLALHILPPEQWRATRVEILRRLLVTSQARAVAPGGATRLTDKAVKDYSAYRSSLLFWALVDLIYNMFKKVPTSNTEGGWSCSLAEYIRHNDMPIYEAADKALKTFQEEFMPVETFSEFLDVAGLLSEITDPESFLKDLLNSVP

binding result [1]: no binding
B1: His-tagged MTAF600 (4529-4851) (other)
chain: EMNTLNVMLGTLNLALVAEQESKDSGGAAVAEQVLSIMEIILDESNAEPLSEDKGNLLLTGDKDQLVMLLDQINSTFVRSNPSVLQGLLRIIPYLSFGEVEKMQILVERFKPYCNFDKYDEDHSGDDKVFLDCFCKIAAGIKNNSNGHQLKDLILQKGITQNALDYMKKHIPSAKNLDADIWKKFLSRPALPFILRLLRGLAIQHPGTQVLIGTDSIPNLHKLEQVSSDEGIGTLAENLLEALREHPDVNKKIDAARRETRAEKKRMAMAMRQKALGTLGMTTNEKGQVVTKTALLKQMEELIEEPGLTCCICREGYKFQPTK
notes: Expressed in E. coli; not shown: His tag of vector pET28c

binding result [2]: binds
B2: RB with the FLAG tag at the C-terminus (other, UniProt P06400 2-928, looked up, not shown: small tags and cut ends)
chain: PPKTPRKTAATAAAAAAEPPAPPPPPPPEEDPEQDSGPEDLPLVRLEFEETEEPDFTALCQKLKIPDHVRERAWLTWEKVSSVDGVLGGYIQKKKELWGICIFIAAVDLDEMSFTFTELQKNIEISVHKFFNLLKEIDTSTKVDNAMSRLLKKYDVLFALFSKLERTCELIYLTQPSSSISTEINSALVLKVSWITFLLAKGEVLQMEDDLVISFQLMLCVLDYFIKLSPPMLLKEPYKTAVIPINGSPRTPRRGQNRSARIAKQLENDTRIIEVLCKEHECNIDEVKNVYFKNFIPFMNSLGLVTSNGLPEVENLSKRYEEIYLKNKDLDARLFLDHDKTLQTDSIDSFETQRTPRKSNLDEEVNVIPPHTPVRTVMNTIQQLMMILNSASDQPSENLISYFNNCTVNPKESILKRVKDIGYIFKEKFAKAVGQGCVEIGSQRYKLGVRLYYRVMESMLKSEEERLSIQNFSKLLNDNIFHMSLLACALEVVMATYSRSTSQNLDSGTDLSFPWILNVLNLKAFDFYKVIESFIKAEGNLTREMIKHLERCEHRIMESLAWLSDSPLFDLIKQSKDREGPTDHLESACPLNLPLQNNHTAADMYLSPVRSPKKKGSTTRVNSTANAETQATSAFQTQKPLKSTSLSLFYKKVYRLAYLRLNTLCERLLSEHPELEHIIWTLFQHTLQNEYELMRDRHLDQIMMCSMYGICKVKNIDLKFKIIVTAYKDLPHAVQETFKRVLIKEEEYDSIIVFYNSVFMQRLKTNILQYASTRPPTLSPIPHIPRSPYKFPSSPLRIPGGNIYISPLKSPYKISEGLPTPTKMTPRSRILVSIGESFGTSEKFQKINQMVCNSDRVLKRSAEGSNPPKPLKKLRFDIEGSDEADGSKHLPGESKFQQKLAEMTSTRTRMQKQKMNDSMDTSNKEEK
notes: also called C-terminally tagged RB

binding result [3]: binds
B3: p130, endogenous, HeLa extract (other, UniProt Q08999 1-1139, looked up)
chain: MPSGGDQSPPPPPPPPAAAASDEEEEDDGEAEDAAPPAESPTPQIQQRFDELCSRLNMDEAARAEAWDSYRSMSESYTLEGNDLHWLACALYVACRKSVPTVSKGTVEGNYVSLTRILKCSEQSLIEFFNKMKKWEDMANLPPHFRERTERLERNFTVSAVIFKKYEPIFQDIFKYPQEEQPRQQRGRKQRRQPCTVSEIFHFCWVLFIYAKGNFPMISDDLVNSYHLLLCALDLVYGNALQCSNRKELVNPNFKGLSEDFHAKDSKPSSDPPCIIEKLCSLHDGLVLEAKGIKEHFWKPYIRKLYEKKLLKGKEENLTGFLEPGNFGESFKAINKAYEEYVLSVGNLDERIFLGEDAEEEIGTLSRCLNAGSGTETAERVQMKNILQQHFDKSKALRISTPLTGVRYIKENSPCVTPVSTATHSLSRLHTMLTGLRNAPSEKLEQILRTCSRDPTQAIANRLKEMFEIYSQHFQPDEDFSNCAKEIASKHFRFAEMLYYKVLESVIEQEQKRLGDMDLSGILEQDAFHRSLLACCLEVVTFSYKPPGNFPFITEIFDVPLYHFYKVIEVFIRAEDGLCREVVKHLNQIEEQILDHLAWKPESPLWEKIRDNENRVPTCEEVMPPQNLERADEICIAGSPLTPRRVTEVRADTGGLGRSITSPTTLYDRYSSPPASTTRRRLFVENDSPSDGGTPGRMPPQPLVNAVPVQNVSGETVSVTPVPGQTLVTMATATVTANNGQTVTIPVQGIANENGGITFFPVQVNVGGQAQAVTGSIQPLSAQALAGSLSSQQVTGTTLQVPGQVAIQQISPGGQQQKQGQSVTSSSNRPRKTSSLSLFFRKVYHLAAVRLRDLCAKLDISDELRKKIWTCFEFSIIQCPELMMDRHLDQLLMCAIYVMAKVTKEDKSFQNIMRCYRTQPQARSQVYRSVLIKGKRKRRNSGSSDSRSHQNSPTELNKDRTSRDSSPVMRSSSTLPVPQPSSAPPTPTRLTGANSDMEEEERGDLIQFYNNIYIKQIKTFAMKYSQANMDAPPLSPYPFVRTGSPRRIQLSQNHPVYISPHKNETMLSPREKIFYYFSNSPSKRLREINSMIRTGETPTKKRGILLEDGSESPAKRICPENHSALLRRLQDVANDRGSH
